Biological target: GST-RanQ69LGTP (UniProt P62826)
Experiment: SPR

drop in response units with 5 μM Iβ1A against the DMSO control: 70%
Substance: importin β (from UniProt Q14974 1-876) (natural protein; other documents disagree on this pair)

From article PMC2956136
